Data taken from patent US11834499 (University of California, dated 2023).

How the values were obtained:
[1] = target: T1, human Claudin-18.2 (CLDN18.2) (human); assay: flow cytometry; HEK293T CLDN18.2 over HEK293T parental [Cont.]
T1 construct: On cells: fused to GFP in engineered HEK293T cells (clone C12), endogenous in HUPT4 and SNU601 cells; also called human CLDN18.2
Experimental: (§1) The samples were then measured by Intellicyt® iQue Advanced Flow Cytometry Platform.

[2] = target: T1, human Claudin-18.2 (CLDN18.2); assay: KinExA, cell-based; HEK293T-CLDN18.2-mGFP C12, Versene; Error% 7.19; 95% CI 0.43nM - 6.90nM; equilibrium curves 500pM and 10nM
Experimental: (§2) For each KD measurement, in general, at least two antibody concentration curves were prepared using the same batch of cells (same passage) to avoid changes in expression level from passage to passage. Briefly, either HEK293T CLDN18.2-mGFP C12 cells (engineered overexpression cell line) or HUPT4 cells (native positive cell line) were detached using Versene. Cells were then equilibrated in different concentrations of the antibody solutions, respectively, in 2% FBS/DMEM or 2% FBS/RPMI at 4° C. overnight. Cells concentrations started with 1.8 ×10^7 cells/ml and 2-fold serial dilution was performed to 10 points. In addition, antibody solution only (Signal 100%) and nonspecific binding (NSB) buffer only were included in each curve. Next day, spin the cells at 1500 rpm for 10 mins and saved the supernatant for measurement. […] The KD and antigen expression level were calculated using two antibody curves analyzed by n-curve analysis.

[3] = target: T1, human Claudin-18.2 (CLDN18.2); assay: flow cytometry; HUPT4 over M202 [Cont.]
Experimental: as §1

[4] = target: T1, human Claudin-18.2 (CLDN18.2); assay: KinExA, cell-based; HUPT4, Versene; Error% 3.90; 95% CI 0.28nM - 1.32nM; equilibrium curves 1nM, 20nM
Experimental: as §2

B1: 02-0358-h5 (antibody, V domains shown)
VH: EVQLVESGGGLVQPGGSLRLSCAVSGFTFSSFGMHWVRQAPGKGLEWVAYISSGTTNIYYADSVKGRFTVSRDNAKNSLYLQMNSLRAEDTAVYYCVRSGYYGNSLDYWGQGTLVTVSS
VL: DIVMTQSPDSLAVSLGERVTMNCKSSQSLFSSGNQRNYLTWYQQKPGQPPKLLIYWASTRESGVPDRFSGSGSGTDFTLTISSVQAEDVAVYYCQNVYIYPLTFGQGTKLEIK
notes: Humanized IgG
[1]
  ratio OE: 574
[2]
  Kd: 1.81 nM
[3]
  ratio native: 111
[4]
  Kd: 0.67 nM
